Measured values reported in patent US12016935B2, “Methods for detecting CCR2 receptors” (Washington University, priority 2016, dated 2024).
Where no end group is shown, it is not given here. [ ]: non-standard residue; d: D form.

Assays:
[1] = Toxicity study in mice (serum chemistries, histology); format: in vivo, mouse; conditions: i.v. 110 μg, 500-fold the estimated human imaging dose; evaluated 24 h later
Procedure: Toxicity studies were performed by S. Greco, DVM (Dept. of Comparative Med., Washington Univ.).

[2] = mouse, in vivo
Procedure: C57BL/6 mice were used for the biodistribution studies. About 10 μCi of ^64Cu-DOTA-ECL1i in 100 μL saline (APP pharmaceuticals, Schaumburg, IL) were injected via the tail vein. The mice were anesthetized with inhaled isoflurane and re-anesthetized before euthanasia by cervical dislocation at each time point (1 hour after injection, n=4/group). Organs of interest were collected, weighed and counted in a Beckman 8000 gamma counter (Beckman, Fullterton, CA).

[3] = target: T1, CCR2 (Mus musculus, UniProt P51683)
T1 sequence (P51683 whole entry): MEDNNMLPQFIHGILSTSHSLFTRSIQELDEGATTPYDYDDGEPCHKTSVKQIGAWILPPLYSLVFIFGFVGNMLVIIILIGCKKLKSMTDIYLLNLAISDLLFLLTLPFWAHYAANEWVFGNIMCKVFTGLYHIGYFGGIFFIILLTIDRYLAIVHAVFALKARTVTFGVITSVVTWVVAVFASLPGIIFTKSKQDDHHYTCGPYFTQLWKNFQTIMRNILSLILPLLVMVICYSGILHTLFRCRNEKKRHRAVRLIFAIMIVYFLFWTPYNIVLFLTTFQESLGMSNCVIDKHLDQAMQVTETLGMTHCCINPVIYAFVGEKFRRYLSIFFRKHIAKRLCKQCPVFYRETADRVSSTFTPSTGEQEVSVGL
Procedure: Instead of a dynamic scan, a static scan was performed at 1, 4 and 24 hours after injection. The PET images were reconstructed with the maximum a posteriori algorithm and analyzed by Inveon Research Workplace. The organ uptake was calculated as percent injected dose per gram (% ID/g) of tissue in three-dimensional regions of interest without the correction for partial volume effect (14).

[4] = mouse, in vivo; remark: listed apart in the source
Procedure: After euthanasia, 1 h post-radiotracer injection, organs of interest were collected, weighed and assayed by gamma counter (Beckman, Brea, CA) as described (23). Standards were prepared and measured in parallel to calculate the percentage of the injected dose per gram of tissue (% ID/g).

[5] = target: T2, CCR2 (Homo sapiens, UniProt P41597); test: Autoradiography on human lung tissue sections; format: binding; parameters: Fixed human lung tissue sections; from tissue; host or cells: human lung (COPD explants and donor lungs), fixed paraffin sections; conditions: lung tissue from subjects with COPD
Procedure: Fixed human lung tissue sections that were deparaffinized and hydrated in PBS were incubated with ^64Cu-DOTA-ECL1i for 5 min (n=4 donor, n=6 COPD). […] Slides were washed 30 times with water then placed in an instant imager (Packard, Meriden, CT) for 30 minutes.
Target sequence in this assay (P41597 whole entry): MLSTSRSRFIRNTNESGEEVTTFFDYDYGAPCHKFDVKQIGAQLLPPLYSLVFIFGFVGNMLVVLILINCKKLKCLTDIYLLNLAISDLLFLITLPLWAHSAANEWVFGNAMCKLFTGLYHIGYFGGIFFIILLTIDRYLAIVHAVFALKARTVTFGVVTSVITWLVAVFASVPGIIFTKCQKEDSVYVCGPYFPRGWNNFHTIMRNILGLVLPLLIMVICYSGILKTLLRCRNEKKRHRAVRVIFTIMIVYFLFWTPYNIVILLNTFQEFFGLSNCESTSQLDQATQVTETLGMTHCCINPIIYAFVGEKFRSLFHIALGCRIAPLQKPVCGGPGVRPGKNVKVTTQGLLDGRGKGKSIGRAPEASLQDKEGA

[6] = system: monocytes (Ly6G^lo, Ly6C^hi); test: Flow cytometry of lung immune cells binding ECL1i-Dylight 550 in vivo; parameters: species or system mouse; conditions: injected i.v. 24 h post LPS; lungs analyzed one hour later
Procedure: Mice (n=4 PBS, n=5 LPS) delivered intratracheal PBS or LPS, and 24 hours later were injected intravenously with ECL1i labeled with Dylight 550 (100 μg) to determine the type of inflammatory cell binding ECL1i. Other mice were treated in parallel but not given ECL1i-Dylight 550 (n=4 PBS, n=5 LPS). One h post-injection, a single cell suspension was produced from the lungs, immunostained with immune cell markers (TABLE 2) and analyzed by flow cytometry.
Mice delivered intratracheal PBS or LPS were injected intravenously with ECL1i labeled with Dylight 550, as with the radiolabeled probe, to determine the type of inflammatory cell binding ECL1i. […] Cells were suspended in FACS buffer, counted by hemocytometer, and prepared for flow cytometry. […] Counts from 1 to 10×10^4 cells were collected for each sample on a FACSCalibur (Becton Dickinson), dual laser, flow cytometer using CellQuest Pro software (BD Biosciences), and analyzed using FlowJo software (Ashland, OR). The mean fluorescent intensity was determined by calculating the geometric mean of Dylight 550 fluorescence of the cell types identified in ECL1i-Dylight 550-injected mice and subtracting the fluorescent background of the same cell types from similarly treated mice not injected with ECL1i-Dylight 550.

[7] = target: T3, human CCR5 (Homo sapiens, UniProt P51681); test: Migration of cells expressing human CCR5; format: cell-based
T3 construct: expressed in transfected cells
T3 sequence (P51681 whole entry): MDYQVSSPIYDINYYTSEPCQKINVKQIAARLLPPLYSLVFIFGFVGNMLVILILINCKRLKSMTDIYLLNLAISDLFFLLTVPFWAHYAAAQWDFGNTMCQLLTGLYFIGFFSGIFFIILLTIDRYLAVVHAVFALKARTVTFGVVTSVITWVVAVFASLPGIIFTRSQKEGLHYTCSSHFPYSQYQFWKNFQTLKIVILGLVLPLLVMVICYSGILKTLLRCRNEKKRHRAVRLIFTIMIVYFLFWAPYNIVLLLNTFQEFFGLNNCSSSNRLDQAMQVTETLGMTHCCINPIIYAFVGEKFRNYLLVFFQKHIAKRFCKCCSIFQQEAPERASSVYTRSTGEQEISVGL

[8] = target: T1, CCR2; test: PET/CT imaging in LPS mouse lung injury model; format: in vivo; parameters: tissue The Jackson Laboratories; host or cells: C57BL/6 mice, lung and aortic arch in vivo (CCR2+ monocytes/macrophages); conditions: PET
Excerpt: The Institutional Animal Care and Use Committee approved these studies. Wild type (n=77) and CCR2-deficient (CCR2^−/−, n=4) mice (C57BL6/J strain) were 8 to 12 weeks of age, of both sexes and approximately 25 g in weight. Mice were used for radiotracer stability studies (n=3) and lung injury studies that included: immunostaining for CCR2 (n=6), in vivo immune cell peptide binding (n=18), lung water weight measurements (n=6), in vivo biodistribution (n=12) and PET/CT imaging (n=36). For the lung injury studies, mice were not treated (naive, n=8), administered intratracheal vehicle control, phosphate buffered saline (PBS, 1 μL/g, n=26) or lipopolysaccharide (LPS, endotoxin, E. coli strain 055:B5, Sigma-Aldrich, St. Louis, MO), at a dose of 2.5 μg/g (n=44), “high” dose, 10 μg/g (n=3), or “low” dose, 0.5 μg/g (n=3) LPS. All CCR2-deficient mice were administered an LPS dose of 2.5 μg/g. Lung water was quantified using wet-to-dry weight ratios in PBS- or intermediate dose LPS-treated mice (n=3/group). Lungs were resected and weighted immediately, then compared to weights obtained after drying at 65° C. for 48 h.
Time-activity curves were calculated from the ROIs from PET images obtained in a subgroup (n=3/group) of the PBS- and LPS-treated mice undergoing imaging at 24 h. […]

[9] = target: T4, human CCR1 (Homo sapiens, UniProt P32246); test: Migration of cells expressing human CCR1; format: cell-based
T4 construct: expressed in transfected cells
T4 sequence (P32246 1-355): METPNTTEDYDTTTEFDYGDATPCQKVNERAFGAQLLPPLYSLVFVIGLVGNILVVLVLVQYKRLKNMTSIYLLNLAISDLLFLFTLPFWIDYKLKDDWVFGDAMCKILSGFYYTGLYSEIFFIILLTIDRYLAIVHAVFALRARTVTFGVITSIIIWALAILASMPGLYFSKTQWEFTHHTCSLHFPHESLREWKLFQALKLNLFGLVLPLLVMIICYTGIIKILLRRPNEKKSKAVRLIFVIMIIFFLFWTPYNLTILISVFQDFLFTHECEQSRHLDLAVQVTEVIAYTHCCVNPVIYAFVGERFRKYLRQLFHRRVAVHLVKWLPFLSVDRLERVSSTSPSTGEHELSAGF

[10] = system: CCR2^+ inflammatory monocytes; test: CCL2-mediated chemotaxis of monocytes; format: cell-based
Excerpt: (§1) CCR2^+ cells migrate in response to CCL2.

[11] = target: T2, CCR2; test: Binding of fluorescently-labeled CCL1 to CCR2-expressing HEK293 cells; parameters: expressed in transfected cells; host or cells: HEK293
Excerpt: as §1
Target sequence in this assay (P41597 whole entry, species assumed): as the sequence (P41597 whole entry) above

[12] = system: CD45^+ immune cells in COPD lung; test: Flow cytometry of cells digested from human COPD lung; format: cell-based
Procedure: There were three CCR2 phenotypes (high, intermediate, normal), with implications for future therapies. […] Our tissue bank also includes cells digested from lung for flow cytometry studies. […] We obtain approximately 6-8 explanted lungs per year from COPD subjects. We propose to also examine lung tissue incubated with ECL1i-647 and cells specific antibodies using two-photon microscopy to localize ECL1i.

[13] = target: T5, human CCR2 (hCCR2) (Homo sapiens, UniProt P41597); test: CCL2-induced chemotaxis in CHO cells that stably express human CCR2; format: cell-based
T5 construct: expressed in transfected cells; host or cells: CHO
T5 sequence (P41597 whole entry): as above
Excerpt: as §1

[14] = target: T6, human CX3CR1 (Homo sapiens, UniProt P49238); test: Migration of cells expressing human CX3CR1; format: cell-based
T6 construct: expressed in transfected cells
T6 sequence (P49238 1-355): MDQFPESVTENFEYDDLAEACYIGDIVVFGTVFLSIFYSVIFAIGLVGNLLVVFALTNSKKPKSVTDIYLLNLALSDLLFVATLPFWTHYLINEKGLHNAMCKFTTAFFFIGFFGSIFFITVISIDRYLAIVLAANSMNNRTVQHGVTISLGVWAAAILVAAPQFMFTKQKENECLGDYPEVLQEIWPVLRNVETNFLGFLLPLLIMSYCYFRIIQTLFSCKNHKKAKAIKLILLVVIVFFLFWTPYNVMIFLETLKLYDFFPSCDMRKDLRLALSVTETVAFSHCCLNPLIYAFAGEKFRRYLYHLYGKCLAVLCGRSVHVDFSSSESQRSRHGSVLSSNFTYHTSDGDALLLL

[15] = target: T2, CCR2; parameters: expressed in transfected cells; host or cells: HEK293; conditions: compared to CCL2 ligand in vitro; cited from earlier work
Target sequence in this assay (P41597 whole entry, species assumed): as the sequence (P41597 whole entry) above

## CC(C)C[C@@H](N)C(=O)NCC(=O)N[C@@H](C(=O)N[C@H](Cc1ccccc1)C(=O)N[C@H](CC(C)C)C(=O)N[C@H](CCCCN)C(=O)N[C@H](CSC1CC(=O)N(CCNC(=O)CN2CCN(CC(=O)O)CCN(CC(=O)O)CCN(CC(=O)O)CC2)C1=O)C(=O)O)[C@H](C)O (single isomer, unassigned) [Cu-DOTA-ECL1i]
[1]
  toxicity findings: normal serum hepatic and renal chemistries, and histologic examination of lung, liver and kidneys

## ^64CuAuNCs-ECL1i: ECL1i-conjugated gold nanoclusters doped with ^64Cu; multivalent targeted nanocluster ([dL]G[dT][dF][dL][dK][dC]; also: joined via TA-PEG-Maleimide to a gold nanocluster doped with 64Cu, attachment site not given here)
[2]
  retention in the blood relative to monovalent ^64Cu-DOTA-ECL1i: six-fold higher
[3]; accumulation of ^64CuAuNCs in native lungs set as background
  share of accumulation in pulmonary grafts due to CCR2-mediated uptake: more than 80%

## CC(C)C[C@@H](N)C(=O)NCC(=O)N[C@@H](C(=O)N[C@H](Cc1ccccc1)C(=O)N[C@H](CC(C)C)C(=O)N[C@H](CCCCN)C(=O)N[C@H](CSC1CC(=O)N(CCNC(=O)CN2CCN(CC(=O)O)CCN(CC(=O)O)CCN(CC(=O)O)CC2)C1=O)C(=O)O)[C@H](C)O (single isomer, unassigned) [^64Cu-DOTA-ECL1i, metal not drawn]
[2]
  uptake in the donor lung relative to native lung (biodistribution): more than twice
[4]
  blood retention, LPS versus PBS treated mice: no difference in blood retention
[3]; transplantation into wild type recipients, excess ECL1i
  PET signal in the grafts blocked by competitive receptor blocking: approximately 75%
[5]
  specificity determined by non-radioactive blockade: 54.5%

## ECL1i-Dylight 550: Maleimide-modified Dylight 550 conjugated to ECL1i on the cysteine residue ([dL]G[dT][dF][dL][dK][dC](Dylight 550 maleimide))
[6]
  binding to monocytes (Ly6G^lo, Ly6C^hi) induced by LPS: significant binding

## DLeu-Gly-DThr-DPhe-DLeu-DLys-DCys ([dL]G[dT][dF][dL][dK][dC]) [ECL1i]
[7]
  inhibition of migration: did not inhibit the migration
[8]
  activity in lungs after intratracheal lipopolysaccharide relative to saline control group: 3.5 fold
[9]
  inhibition of migration: did not inhibit the migration
[10]
  inhibition of CCL2-mediated chemotaxis of monocytes: inhibited CCL2-mediated chemotaxis of CCR2^+ inflammatory monocytes, but not of resident monocytes
[11]
  effect on binding of fluorescently-labeled CCL1: did not prevent the binding
[12]
  binding to human lung cells: bound a population of CD45^+ immune cells
[13]; at concentrations that inhibited CCL2 signaling
  induction of migration of CHO-hCCR2 cells: did not induce the migration
[13]; concentration-dependent manner
  inhibition of CCL2-induced chemotaxis: specifically inhibited CCL2-induced chemotaxis
[14]
  inhibition of migration: did not inhibit the migration
[15]
  CCR2 binding mode: selectively bind CCR2 in a non-competitive way
